Data from patent publication US20040014939.

System: T1, synthetic substrate Mcc-Pro-Leu-Gly-Pro-D-Lys(DNP)-OH
T1 sequence: PLGPK

luciferase as a fusion protein with 6×His tag
enzyme activity (fluorescence intensity, excitation 345±10 nm, emission 425±10 nm, 37° C. for 1 h): the enzyme activity was not detected in the water-soluble fraction in the case of a control in which luciferase gene was introduced into the similar expression vector
